# Source: patent US9206246B2, “Heparin/heparan sulfate-dependent inhibitors of activated protein C and uses thereof in treating hemophilic disorders” (Academia Sinica, priority 2012, dated 2015)
# “And” between values parts separate entries of the source, which are not always exact repeats. Equal values may be shown once.
# Legend:
# [1] = target: APC (Homo sapiens, UniProt P04070); test: Surface plasmon resonance, immobilized APC; assay type: binding; parameters: purchased Haematologic Technologies; details: no heparin
# Sequence of APC (P04070 212-450 limits assumed): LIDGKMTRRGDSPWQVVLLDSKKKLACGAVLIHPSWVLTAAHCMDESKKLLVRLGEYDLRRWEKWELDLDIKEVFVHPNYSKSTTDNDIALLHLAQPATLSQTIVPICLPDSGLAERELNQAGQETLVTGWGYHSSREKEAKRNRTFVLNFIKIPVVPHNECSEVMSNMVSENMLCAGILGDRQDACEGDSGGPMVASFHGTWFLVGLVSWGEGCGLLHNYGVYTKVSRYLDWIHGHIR
# Sequence of APC (P04070 43-197 limits assumed): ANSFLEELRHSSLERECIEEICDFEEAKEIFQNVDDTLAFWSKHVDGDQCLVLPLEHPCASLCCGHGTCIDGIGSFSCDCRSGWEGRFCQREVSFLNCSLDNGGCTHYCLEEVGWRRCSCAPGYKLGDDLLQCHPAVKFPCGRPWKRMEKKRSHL
# Procedure: A: 70 μg of DrKIn-I in 0.1 ml equilibrating buffer (20 mM Tris-HCl, pH 8.0) was applied to a 5 ml HiTrap Heparin column and eluted with a 50 ml gradient from 0.0-1.0 M NaCl. […] The thin lines represent the global fit to the response data. […] Results shown are means±SD of three experiments. Representative binding traces are shown.
# Biacore T200 (GE Healthcare) was used for analysis. APC or PC dissolved in 10 mM acetate buffer (pH 5.0) was immobilized on a CM5 sensor chip to a response unit (RU) of 1000 with an amine coupling kit. Associations and dissociations of DrKIn-I were performed in 10 mM HEPES (N-2-hydroxyethylpiperazine-N′-2-ethanesulfonic acid; pH 7.4), 150 mM NaCl, 3 mM EDTA (ethylenediaminetetraacetic acid) and 0.05% P20 with a flow rate of 60 μl/min. […] Binding kinetics were determined by global fitting to 1:1 Langmuir binding model using the Biaevaluation software (GE Healthcare).
# [2] = system: trypsin; test: Selectivity profile, amidolytic activity of trypsin; assay type: biochemical; details: equimolar DrKIn-I and enzyme active site, trypsin 5 nM
# Procedure: In each of these experiments, the molar ratio of protease active site to inhibitor was 1:1. The final concentrations of these proteases and their respective substrates were as follows: FXIIa (20 nM)/S-2302 (0.2 mM), FXIa (2.5 nM)/S-2366 (0.2 mM), FXa (10 nM)/S-2222 (1.3 mM), FIXa (200 nM)/Spectrozyme FIXa (1.3 mM), FVIIa (100 nM)/S-2288 (1.3 mM), thrombin (5 nM)/T-1637 (0.2 mM), kallikrein (5 nM)/S-2302 (0.2 mM), plasmin (20 nM)/S-2251 (0.2 mM), tPA (80 nM)/Spectrozyme tPA (0.2 mM), uPA (100 nM)/S-2288 (1.3 mM), APC (10 nM)/Spectrozyme PCa (0.2 mM) and trypsin (5 nM)/S-2222 (0.2 mM). Results shown are means±SD of at least three experiments.
# DrKIn-I, with or without heparin, was screened for its inhibitory activity against trypsin and also against serine proteases in the coagulation cascade (FXIIa, FXIa, FXa, FIXa, FVIIa, thrombin and kallikrein) and in the fibrinolytic system (plasmin, tPA and uPA). The amidolytic activities of these proteases were determined in the presence or absence of equimolar concentrations of DrKIn-I using their respective chromogenic substrates.
# [3] = target: T1, human activated protein C (Homo sapiens, UniProt P04070); test: Inhibition of APC amidolytic activity (Spectrozyme PCa chromogenic substrate); assay type: biochemical; details: for enhancement of APC inhibition by heparan sulfate chain: 10 μg/ml, APC and DrKIn-I 20 nM each; for Hill slope of dose-response curve / IC50: APC 10 nM
# T1 construct: purchased Haematologic Technologies
# T1 sequence (P04070 212-450 limits assumed): as the sequence (P04070 212-450 limits assumed) above
# T1 sequence (P04070 43-197 limits assumed): as the sequence (P04070 43-197 limits assumed) above
# Procedure: B: Dose-response curves of APC (10 nM) inhibition by DrKIn-I in the absence (◯) and presence (●) of 0.1 U/ml heparin. C: To determine the minimum concentration of heparin required for the potentiation APC inhibition, the activity of APC (20 nM) was measured after the addition of DrKIn-I (20 nM) and varying concentrations of heparin (0-1000 mU/ml). D: To assess the ability of heparan sulfate and the minimum length of heparan sulfate required to potentiate DrKIn-I-mediated APC inhibition, the amidolytic activity of APC was determined in the presence of DrKIn-I (20 nM) and different lengths of heparan sulfate chains (10 μg/ml each). E, Time course of FVa inactivation by APC (1 nM) was assessed in the absence (●) or presence (▪) of 5 nM DrKIn-I, or in the presence of 5 nM DrKIn-I supplemented with 0.1 U/ml heparin (▴), as described in “Materials and methods”. F, The effect of DrKIn-I (0-250 nM) and/or heparin (0.1 U/ml) on APC-mediated FVa inactivation was determined after 10 minutes of incubation at 37° C. with APC (5 nM). Results shown are means±SD of three experiments.
# All inhibition assays were performed in 96-wells microtiter plates in 25 mM Tris-HCl (pH 7.4), 150 mM NaCl, 2.5 mM CaCl2 and 5 mg/ml BSA. For comparison between DrKIn-I and DrKIn-II, the amidolytic activity of 10 nM APC, with or without 0.1 U/ml heparin, was assayed in the presence or absence of equal molar concentrations of DrKIn-I or DrKIn-II. Immediately after the addition of APC, Spectrozyme PCa was added and the rates of p-nitroaniline release were monitored at 405 nm for 10 minutes at 37° C. For dose response curves, APC was mixed with different concentrations of DrKIn-I in the presence or absence of heparin. The final concentrations were as follows: APC (10 nM), heparin (0.1 U/ml) and DrKIn-I (0-100 nM in the presence of heparin and 0-12800 nM in the absence of heparin). Dose-response curves were fitted using GraphPad Prism (GraphPad Software). In other inhibition experiments, varying concentrations of heparin ([…]) or different lengths of heparan sulfate chains (10 μg/ml) were added to equimolar concentrations of APC and DrKIn-I (20 nM each). In all the inhibition experiments, Spectrozyme PCa was added to a final concentration of 0.2 mM. Changes in absorbance were measured using SpectraMax M2^e Microplate Reader (Molecular Devices).
# [4] = in the presence of 0.1 U/ml heparin
substance,measurement,setting,value
DrKIn-I (CGGNDNNFETRKKCRQTCGAPRKGRPT),association rate constant,[1]; 1:1 Langmuir model,1.3±0.8×10^7 M^−1 s^−1 and ~1.3×10^7 M^−1 s^−1 and 1.7×10^7 M^−1 s^−1
same,dissociation rate constant,[1]; 1:1 Langmuir model,3.4±2.2×10^−2 s^−1
same,Kd,[1]; 25° C.,~2.6 nM
same,inhibition of trypsin,[2],~45%
same,inhibitory activity against APC in the absence of heparin,"[3]; 10 nM inhibitor, 10 nM APC, no heparin",little inhibitory activity against APC
same,potentiation of APC inhibition by heparin,"[3]; 0.01 U/ml heparin, APC 20 nM, DrKIn-I 20 nM",more than 70%
same,APC activity,"[3]; 0.1 U/ml heparin, APC 20 nM, DrKIn-I 20 nM",no APC activity was detectable
same,decrease of APC activity (inhibition of APC amidolytic activity),"[3]; equimolar inhibitor and APC (10 nM each), 0.1 U/ml heparin, Spectrozyme PCa 0.2 mM",100%
same,enhancement of APC inhibition by heparan sulfate chain,[3]; heparan sulfate of 2 disaccharide units,~25%
same,enhancement of APC inhibition by heparan sulfate chain,[3]; heparan sulfate of one disaccharide unit,~10%
same,Hill slope of dose-response curve,[3]; in the absence of heparin,−0.85±0.02
same,IC50,[3]; in the absence of heparin,88.9 ± 1 nM
same,Hill slope of dose-response curve,[3]; [4],−3.64±0.30
same,IC50,[3]; [4],3.5 ± 0.2 nM
same,reduction of IC50 by heparin,[3]; with vs without heparin,25 fold
